The target of the test is T1, Neisserial heparin-binding antigen (NHBA) peptide 20 (Neisseria meningitidis strain 2996, UniProt Q9JPP1 18-427).
T1 construct: NHBA variant p20 (short variant) of N. meningitidis strain 2996, UniProt Q9JPP1; also called NHBA p20; NHBAp20
T1 sequence: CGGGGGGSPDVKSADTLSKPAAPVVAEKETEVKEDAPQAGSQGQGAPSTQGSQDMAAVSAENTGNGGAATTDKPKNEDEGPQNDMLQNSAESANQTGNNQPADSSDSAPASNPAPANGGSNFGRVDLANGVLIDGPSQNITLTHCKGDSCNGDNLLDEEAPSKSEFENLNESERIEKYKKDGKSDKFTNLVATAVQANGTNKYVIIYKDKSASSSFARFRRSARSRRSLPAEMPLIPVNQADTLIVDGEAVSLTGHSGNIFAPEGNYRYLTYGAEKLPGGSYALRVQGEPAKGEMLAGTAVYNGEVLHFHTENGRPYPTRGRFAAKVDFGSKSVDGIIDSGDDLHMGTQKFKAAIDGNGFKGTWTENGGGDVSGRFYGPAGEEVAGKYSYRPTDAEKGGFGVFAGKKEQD
As to the kind of experiment: SPR; Biacore T200, 25 °C; Fab (800-1100 RU) captured by anti-Fab mAbs (Human Fab Capture Kit) on a CM5 chip; NHBA injected, single-cycle kinetics, five injections 6.25-100 nM, 30 µl/min; HBS-EP (10 mM HEPES, 150 mM NaCl, 3 mM EDTA, 0.05% P20, pH 7.4); 1:1 Langmuir model with mass-transfer term; duplicate. To be noted: both partners purified. In general terms: SPR reads the build-up and loss of mass on a sensor chip optically.

B1: Fab 12E1 (Fab, V domains shown)
VH: QVQLVQSGAEVKKPGASVKVSCKASGYIFTSHPIHWVRQAPGQRPEWMGWINAGNGNTKYSQKFQDRVNLTRDTSASTVFMELINLRFEDTAIYYCIRETKFDPWGQGTLVTVSS
VL: EIVLTQSPLSLPVTLGQPASISCRSSQDLVYRDGITYLNWFQQRPGQSPRRLIYKVSNRDSGVPDRFSGSGSGTDFTLRISRVEAEDIGVYYCMQGTHWPITFGQGTRLEIKR
notes: heavy chain of Fab 12E1 (human VH, human IgG1 CH1) as left after TEV cleavage; light chain of Fab 12E1; Fab cloned from a human monoclonal antibody of a Bexsero vaccinee; also called anti-NHBA human Fab 12E1; source: Expi293 cells, transient transfection, purified from supernatant (StrepTrap HP, TEV cleavage, Superdex 200); not shown: double Strep-tag II, C-terminal, cleaved
Broadly, the Kd is the concentration at which binding is half-saturated. A low value points to higher affinity. A word on the koff: it is a measure of how fast the partners let go of each other. Lower therefore signals slow dissociation. Usually kon stands for a measure of how fast the partners come together. Consider B1, for which the Kd was determined as 6.2 nM, the koff stood at 0.0003 s⁻¹ and the kon was found to be 49000 M⁻¹ s⁻¹.

These data come from PMC5458386, “Crystal structures of human Fabs targeting the Bexsero meningococcal vaccine antigen NHBA” (Acta Crystallographica. Section F, Structural Biology …, 2017).
